PMC4190069

Legend:
[1] = biological target: Rad51 (wild type);Rad52 (wild type);RPA (wild type) (Saccharomyces cerevisiae;Saccharomyces …, UniProt P25454;P06778;P22336;P26754;P26755 1-400;1-471;1-621;1-273;1-122, ||); assay: bead pull-down
[2] = biological target: RPA (wild type);Rad52 (wild type) (Saccharomyces cerevisiae;Saccharomyces …, UniProt P22336;P26754;P26755;P06778 1-621;1-273;1-122;1-471, |); assay: bead pull-down
Sequence of RPA (wild type);Rad52 (wild type) (P22336 whole entry, chain 1 of 4): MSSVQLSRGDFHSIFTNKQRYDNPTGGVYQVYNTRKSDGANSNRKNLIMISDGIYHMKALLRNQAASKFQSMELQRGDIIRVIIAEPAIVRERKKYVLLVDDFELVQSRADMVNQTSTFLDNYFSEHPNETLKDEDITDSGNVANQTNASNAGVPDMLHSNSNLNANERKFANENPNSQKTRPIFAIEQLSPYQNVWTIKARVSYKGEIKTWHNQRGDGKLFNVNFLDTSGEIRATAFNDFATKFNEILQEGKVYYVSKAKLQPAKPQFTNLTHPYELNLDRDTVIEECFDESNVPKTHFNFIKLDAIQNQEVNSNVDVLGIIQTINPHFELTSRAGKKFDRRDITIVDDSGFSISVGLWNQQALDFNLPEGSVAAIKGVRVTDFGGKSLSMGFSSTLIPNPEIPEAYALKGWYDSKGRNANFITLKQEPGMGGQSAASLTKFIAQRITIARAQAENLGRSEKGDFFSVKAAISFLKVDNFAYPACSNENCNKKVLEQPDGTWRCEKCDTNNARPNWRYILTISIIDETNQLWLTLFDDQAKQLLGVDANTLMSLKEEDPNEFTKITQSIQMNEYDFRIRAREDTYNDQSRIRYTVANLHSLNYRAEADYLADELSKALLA
Sequence of RPA (wild type);Rad52 (wild type) (P26754 whole entry, chain 2 of 4): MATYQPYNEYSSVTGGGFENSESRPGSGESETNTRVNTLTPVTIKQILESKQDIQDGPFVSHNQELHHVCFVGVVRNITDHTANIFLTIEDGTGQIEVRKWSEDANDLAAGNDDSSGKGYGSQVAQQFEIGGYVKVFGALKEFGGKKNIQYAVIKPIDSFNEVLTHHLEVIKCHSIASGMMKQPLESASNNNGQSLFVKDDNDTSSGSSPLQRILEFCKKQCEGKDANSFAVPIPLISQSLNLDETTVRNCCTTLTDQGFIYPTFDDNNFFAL
Sequence of RPA (wild type);Rad52 (wild type) (P26755 whole entry, chain 3 of 4): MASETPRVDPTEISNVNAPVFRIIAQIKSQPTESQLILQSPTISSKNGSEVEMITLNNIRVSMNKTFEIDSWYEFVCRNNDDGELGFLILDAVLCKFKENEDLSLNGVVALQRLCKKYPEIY
Sequence of RPA (wild type);Rad52 (wild type) (P06778 whole entry, chain 4 of 4): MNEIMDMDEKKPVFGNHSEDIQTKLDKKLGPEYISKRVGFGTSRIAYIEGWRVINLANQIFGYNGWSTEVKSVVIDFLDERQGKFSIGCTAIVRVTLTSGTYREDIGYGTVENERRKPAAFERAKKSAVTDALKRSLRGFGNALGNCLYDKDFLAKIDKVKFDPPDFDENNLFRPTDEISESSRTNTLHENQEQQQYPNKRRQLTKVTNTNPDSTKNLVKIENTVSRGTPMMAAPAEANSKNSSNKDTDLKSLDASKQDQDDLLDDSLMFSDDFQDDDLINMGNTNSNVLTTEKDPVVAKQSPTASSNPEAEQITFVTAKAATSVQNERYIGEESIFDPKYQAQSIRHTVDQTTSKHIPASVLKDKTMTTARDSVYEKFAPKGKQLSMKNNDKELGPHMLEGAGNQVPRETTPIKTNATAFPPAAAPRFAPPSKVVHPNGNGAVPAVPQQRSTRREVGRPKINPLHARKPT

B1: 74-nt biotinylated ssDNA oligo (ssDNA)
DNA: TTTTTTGTAAAACGACGGCCAGTGCCAAGCTTGCATGCCTGCAGGTCGACTCTAGAGGATCCCCGGGTACCGAG
modifications: 5' biotin
binding result [1]: binds
binding result [2]: binds
